Among the data in publication PMC3124497 are stoichiometry N and sCD4 IC50: concentration of 4-domain soluble CD4 required to decrease HIV-1 infectivity by 50% (TZM-bl cells) values, retold here.

The target of assay [1] is HIV-1 JR-FL SOS Env trimer (A501C, T605C) on LAI-chimeric molecular clone virions (HIV-1 isolate JR-FL | HIV-1 isolate LAI). As to the kind of experiment: native gel or EMSA; Blue Native PAGE: virions concentrated 100-fold, 1% DDM for 20 min on ice, 4-16% NativePAGE Bis-Tris gel at RT, Western blot with mAb cocktails to gp120 or to gp41; virions untreated or first incubated 1 h at 37-57°C or up to 96 h at 37°C. Background: A gel shift assay detects complexes by their altered migration in electrophoresis.

The target of assay [2] is HIV-1 ADA Env trimer (gp120/gp41) on LAI-chimeric molecular clone virions (HIV-1 isolate ADA | HIV-1 isolate LAI).
Assay [3] has as its target HIV-1 JR-FL Env trimer (gp120/gp41) on LAI-chimeric molecular clone virions (HIV-1 isolate JR-FL | HIV-1 isolate LAI).
The target of assay [4] is HIV-1 JR-CSF Env trimer (gp120/gp41) on LAI-chimeric molecular clone virions (HIV-1 isolate JR-CSF | HIV-1 isolate LAI) (UniProt P20871).
Assay [5] addresses HIV-1 JR2 Env trimer (gp120/gp41) on LAI-chimeric molecular clone virions (HIV-1 isolate JR-FL | HIV-1 isolate LAI). Kind of assay: native gel or EMSA; Blue Native PAGE: virions concentrated 100-fold, 1% DDM for 20 min on ice, 4-16% NativePAGE Bis-Tris gel at RT, Western blot with mAb cocktails to gp120 or to gp41; virions untreated or first incubated 1 h at 37-57°C or up to 96 h at 37°C.

Assay [6] has as its target HIV-1 ADA Env trimer (gp120/gp41) on LAI-chimeric molecular clone virions (HIV-1 isolate ADA | HIV-1 isolate LAI). The description is as above.
Assay [7] has as its target HIV-1 JR-CSF Env trimer (gp120/gp41) on LAI-chimeric molecular clone virions (HIV-1 isolate JR-CSF | HIV-1 isolate LAI) (UniProt P20871). Described as above.
In assay [8] the target is HIV-1 JR-FL Env trimer (gp120/gp41) on LAI-chimeric molecular clone virions (HIV-1 isolate JR-FL | HIV-1 isolate LAI). Described as above.

Usually stoichiometry N stands for a count of units in the complex or per binding partner. Turning to “HIV-1 JR-FL SOS Env trimer (A501C, T605C) on LAI-chimeric molecular clone virions (complex)”, the stoichiometry N in assay [1] was found to be 3.

Turning to “Four-domain soluble human CD4 (receptor)”, the sCD4 IC50: concentration of 4-domain soluble CD4 required to decrease HIV-1 infectivity by 50% (TZM-bl cells) in assay [2] was determined as 0.17 µg/mL; in assay [3] it was 1.2 µg/mL; in assay [4], 1.1 µg/mL.

The substance “HIV-1 JR2 Env trimer (gp120/gp41) on LAI-chimeric molecular clone virions (complex)” yielded a stoichiometry N in assay [5] of 3.

In assay [6], “HIV-1 ADA Env trimer (gp120/gp41) on LAI-chimeric molecular clone virions (complex)” registered a stoichiometry N of 3.

For “HIV-1 JR-CSF Env trimer (gp120/gp41) on LAI-chimeric molecular clone virions (from UniProt P20871 32-503) (complex)”, the stoichiometry N in assay [7] amounted to 3.

“HIV-1 JR-FL Env trimer (gp120/gp41) on LAI-chimeric molecular clone virions (complex)” came in with a stoichiometry N in assay [8] of 3.
